Test results taken from US20230144608.

T1: APAGLIVPYN (SEQ ID NO: 5)
T1 chain: APAGLIVPYN

T2: IVGRPRHQGV (SEQ ID NO: 7)
T2 chain: IVGRPRHQGV

T3: PANLVAPDP (SEQ ID NO: 6)
T3 chain: PANLVAPDP

T4: PVSLRSGS (SEQ ID NO: 1)
T4 chain: PVSLRSGS

T5: RPLALWRS (SEQ ID NO: 3)
T5 chain: RPLALWRS

T6: RSKYLATA (SEQ ID NO: 8)
T6 chain: RSKYLATA

T7: TQKPLGLS (SEQ ID NO: 4)
T7 chain: TQKPLGLS


Assays:
[1] = target: T1, APAGLIVPYN (SEQ ID NO: 5)
[2] = target: T2, IVGRPRHQGV (SEQ ID NO: 7)
[3] = target: T3, PANLVAPDP (SEQ ID NO: 6)
[4] = target: T4, PVSLRSGS (SEQ ID NO: 1)
[5] = target: T5, RPLALWRS (SEQ ID NO: 3)
[6] = target: T6, RSKYLATA (SEQ ID NO: 8)
[7] = target: T7, TQKPLGLS (SEQ ID NO: 4)

Protein	initial rate of cleavage by recombinant protease [1] [µM/h]	initial rate of cleavage by recombinant protease [2] [µM/h]	initial rate of cleavage by recombinant protease [3] [µM/h]	initial rate of cleavage by recombinant protease [4] [µM/h]	initial rate of cleavage by recombinant protease [5] [µM/h]	initial rate of cleavage by recombinant protease [6] [µM/h]	initial rate of cleavage by recombinant protease [7] [µM/h]
MMP-7 (protein) YSLFPNSPKWTSKVVTYRIVSYTRDLPHITVDRLVSKALNMWGKEIPLHFRKVVWGTADIMIGFARGAHGDSYPFDGPGNTLAHAFAPGTGLGGDAHFDEDERWTDGSSLGINFLYAATHELGHSLGMGHSSDPNAVMYPTYGNGDPQNFKLSQDDIKGIQKLYGKRSNSRKK	2.4	0	2.5	0.2	0.2	0	1.8
MMP-2 (protein) YNFFPRKPKWDKNQITYRIIGYTPDLDPETVDDAFARAFQVWSDVTPLRFSRIHDGEADIMINFGRWEHGDGYPFDGKDGLLAHAFAPGTGVGGDSHFDDDELWTLGEGQVVRVKYGNADGEYCKFPFLFNGKEYNSCTDTGRSDGFLWCSTTYNFEKDGKYGFCPHEALFTMGGNAEGQPCKFPFRFQGTSYDSCTTEGRTDGYRWCGTTEDYDRDKKYGFCPETAMSTVGGNSEGAPCVFPFTFLGNKYESCTSAGRSDGKMWCATTANYDDDRKWGFCPDQGYSLFLVAAHEFGHAMGLEHSQDPGALMAPIYTYTKNFRLSQDDIKGIQELYGASPDIDLGTGPTPTLGPVTPEICKQDIVFDGIAQIRGEIFFFKDRFIWRTVTPRDKPMGPLLVATFWPELPEKIDAVYEAPQEEKAVFFAGNEYWIYSASTLERGYPKPLTSLGLPPDVQRVDAAFNWSKNKKTYIFAGDKFWRYNEVKKKMDPGFPKLIADAWNAIPDNLDAVVDLQGGGHSYFFKGAYYLKLENQSLKSVKFGSIKSDWLGC	29.6	0	31.2	1.9	1.1	0	11.8
MMP-1 (protein) FVLTEGNPRWEQTHLTYRIENYTPDLPRADVDHAIEKAFQLWSNVTPLTFTKVSEGQADIMISFVRGDHRDNSPFDGPGGNLAHAFQPGPGIGGDAHFDEDERWTNNFREYNLHRVAAHELGHSLGLSHSTDIGALMYPSYTFSGDVQLAQDDIDGIQAIYGRSQNPVQPIGPQTPKACDSKLTFDAITTIRGEVMFFKDRFYMRTNPFYPEVELNFISVFWPQLPNGLEAAYEFADRDEVRFFKGNKYWAVQGQNVLHGYPKDIYSSFGFPRTVKHIDAALSEENTGKTYFFVANKYWRYDEYKRSMDPGYPKMIAHDFPGIGHKVDAVFMKDGFFYFFHGTRQYKFDPKTKRILTLQKANSWFNCRKN	0	0	2.7	0	0.1	0	0
